Results from patent publication US20220288229A1 (priority 2012, published 2022).

Test: Tolerability observations after IV dosing in the rat PK study
Type: in vivo
Conditions: rats, 1 mg/kg dose, three rats
Procedure: For PK studies, a 0.1 mg/mL solution was dosed at 10 mL/kg such that a 1 mg/kg IV bolus dose was introduced by tail vein injection into rats Following compound administration, blood was collected at 0.083 h, 0.25 h, 0.5 h, 1 h, 2 h, 4 h, 8 h, and 24 h post dose into lithium heparin coated vacuum tubes. Tubes were inverted for 5 minutes and then placed on wet ice until centrifuged for 5 minutes at 4° C. at 6000 rpm. Plasma was harvested, frozen at −80° C. and shipped to for bioanalysis on dry ice.

CCCCN(CCSSC[C@@H]1NC(=O)[C@@H](Cc2ccccc2)NC(=O)[C@H](CC(=O)O)NC(=O)CNC(=O)[C@H](CCCNC(=N)N)NC1=O)C(=O)O[C@@H](C(=O)OC1C[C@@]2(O)[C@@H](OC(=O)c3ccccc3)[C@@H]3[C@]4(OC(C)=O)CO[C@@H]4C[C@H](OC)[C@@]3(C)C(=O)[C@H](OC)C(=C1C)C2(C)C)[C@@H](NC(=O)OC(C)(C)C)c1ccccc1 (some centres unmarked) [BT-568]
Clinical signs of toxicity post dose: lethargy and labored breathing were observed immediately post dose in all three rats
Mortality: one of the three animals died
